# Data taken from patent publication US20260184814A1, “BROADLY NE[…] INFLUENZA NEURAMINIDASE” (priority 2022, published 2026).
# Key:
# [1] = molecular target: human FcγRIIIa (F158 allele) (human) (UniProt P08637)
# [2] = molecular target: human FcγRIIIa (V158 allele) (human) (UniProt P08637)
# [3] = molecular target: human FcγRIIa (H131 allele) (human) (UniProt P12318)
# human FcγRIIb (human) [4] = molecular target: human FcγRIIb (human) (UniProt P31994)
# human C1q (human) [5] = molecular target: human C1q (human) (UniProt P02745); assay: MSD
# Sequence of human C1q (human) (P02745 23-245 limits assumed, chain 1 of 3): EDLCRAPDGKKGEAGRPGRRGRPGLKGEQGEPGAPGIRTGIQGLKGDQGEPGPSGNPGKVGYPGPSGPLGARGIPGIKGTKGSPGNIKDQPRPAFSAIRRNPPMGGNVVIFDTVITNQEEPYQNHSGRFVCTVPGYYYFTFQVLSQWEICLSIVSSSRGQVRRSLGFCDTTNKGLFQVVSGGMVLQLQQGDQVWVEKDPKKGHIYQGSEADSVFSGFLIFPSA
# Sequence of human C1q (human) (P02746 28-253 limits assumed, chain 2 of 3, further chain): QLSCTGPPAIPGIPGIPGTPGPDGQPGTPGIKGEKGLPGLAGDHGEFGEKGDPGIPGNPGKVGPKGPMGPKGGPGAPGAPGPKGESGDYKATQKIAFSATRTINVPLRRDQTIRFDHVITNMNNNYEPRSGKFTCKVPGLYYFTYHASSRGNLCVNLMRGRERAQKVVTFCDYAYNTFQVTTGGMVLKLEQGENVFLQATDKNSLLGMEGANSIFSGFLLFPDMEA
# Sequence of human C1q (human) (P02747 29-245 limits assumed, chain 3 of 3, further chain): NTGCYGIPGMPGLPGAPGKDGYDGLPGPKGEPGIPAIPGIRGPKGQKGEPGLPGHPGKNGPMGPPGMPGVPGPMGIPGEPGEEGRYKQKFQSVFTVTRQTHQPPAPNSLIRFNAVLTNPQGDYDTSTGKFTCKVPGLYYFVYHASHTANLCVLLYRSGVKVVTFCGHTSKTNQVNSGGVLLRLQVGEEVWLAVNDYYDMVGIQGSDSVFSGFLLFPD
# human FcRn (human) [6] = molecular target: human FcRn (human) (UniProt P55899); assay: MSD
# Sequence of human FcRn (human) (P55899 24-297 limits assumed, chain 1 of 2): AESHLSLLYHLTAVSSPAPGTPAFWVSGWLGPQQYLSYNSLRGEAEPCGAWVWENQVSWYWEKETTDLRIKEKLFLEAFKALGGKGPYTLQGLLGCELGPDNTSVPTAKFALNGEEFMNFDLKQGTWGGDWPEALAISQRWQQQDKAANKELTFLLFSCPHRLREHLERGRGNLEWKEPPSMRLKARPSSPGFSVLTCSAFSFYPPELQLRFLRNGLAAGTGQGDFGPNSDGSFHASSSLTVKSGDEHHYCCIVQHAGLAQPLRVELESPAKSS
# Sequence of human FcRn (human) (chain, as listed by the source limits assumed, chain 2 of 2): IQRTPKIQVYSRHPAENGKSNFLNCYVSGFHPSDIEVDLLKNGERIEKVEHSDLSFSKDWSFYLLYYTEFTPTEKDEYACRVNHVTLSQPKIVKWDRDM
# [7] = molecular target: human FcγRIIIa (F158 allele) (human) (UniProt P08637); assay: MSD
# [8] = molecular target: human FcγRIIIa (V158 allele) (human) (UniProt P08637); assay: MSD
# human FcγRIIIb (human) [9] = molecular target: human FcγRIIIb (human) (UniProt O75015); assay: MSD
# Sequence of human FcγRIIIb (human) (O75015 17-200 limits assumed): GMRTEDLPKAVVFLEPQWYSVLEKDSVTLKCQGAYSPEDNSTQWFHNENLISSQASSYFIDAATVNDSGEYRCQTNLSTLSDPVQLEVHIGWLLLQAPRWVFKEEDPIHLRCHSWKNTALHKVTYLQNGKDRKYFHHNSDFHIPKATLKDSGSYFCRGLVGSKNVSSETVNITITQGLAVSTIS
# [10] = molecular target: human FcγRIIa (H131 allele) (human) (UniProt P12318); assay: MSD
# [11] = molecular target: human FcγRIIa (R131 allele) (human) (UniProt P12318); assay: MSD
# Sequence of human FcγRIIa (R131 allele) (human) (P12318 34-218 H167R limits assumed): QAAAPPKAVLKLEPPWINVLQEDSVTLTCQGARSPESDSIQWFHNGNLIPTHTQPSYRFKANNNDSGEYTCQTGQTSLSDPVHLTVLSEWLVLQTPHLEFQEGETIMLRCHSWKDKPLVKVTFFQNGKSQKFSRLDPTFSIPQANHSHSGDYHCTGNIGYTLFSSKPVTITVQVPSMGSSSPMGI
# human FcγRIIb (human) [12] = molecular target: human FcγRIIb (human) (UniProt P31994); assay: MSD
# human C1q (human) [13] = molecular target: human C1q (human) (UniProt P02745); assay: MSD [cont'd]
# human FcRn (human) [14] = molecular target: human FcRn (human) (UniProt P55899); assay: MSD [cont'd]
# [15] = molecular target: human FcγRIIIa (F158 allele) (human) (UniProt P08637); assay: MSD [cont'd]
# [16] = molecular target: human FcγRIIIa (V158 allele) (human) (UniProt P08637); assay: MSD [cont'd]
# human FcγRIIIb (human) [17] = molecular target: human FcγRIIIb (human) (UniProt O75015); assay: MSD [cont'd]
# [18] = molecular target: human FcγRIIa (H131 allele) (human) (UniProt P12318); assay: MSD [cont'd]
# [19] = molecular target: human FcγRIIa (R131 allele) (human) (UniProt P12318); assay: MSD [cont'd]
# human FcγRIIb (human) [20] = molecular target: human FcγRIIb (human) (UniProt P31994); assay: MSD [cont'd]
# human FcRn (human) [21] = molecular target: human FcRn (human) (UniProt P55899); assay: MSD, pH 6 [cont'd]
# [22] = molecular target: human FcγRIIa (H131 allele) (human) (UniProt P12318); assay: Table B summary, vs fucosylated wild-type human IgG1
# [23] = molecular target: human FcγRIIa (R131 allele) (human) (UniProt P12318); assay: as above
# Sequence of human FcγRIIIa (V158 allele) (human) (P08637 17-208 F176V limits assumed): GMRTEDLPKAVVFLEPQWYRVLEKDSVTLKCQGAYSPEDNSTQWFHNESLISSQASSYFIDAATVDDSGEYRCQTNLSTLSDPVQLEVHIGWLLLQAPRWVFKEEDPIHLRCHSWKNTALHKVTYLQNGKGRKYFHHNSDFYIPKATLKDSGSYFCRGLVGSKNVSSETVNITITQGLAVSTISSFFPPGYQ
# Sequence of human FcγRIIIa (F158 allele) (human) (P08637 17-208 limits assumed): as the sequence (P08637 17-208 F176V limits assumed) above, with V160F counted along it
# Sequence of human FcγRIIa (H131 allele) (human) (P12318 34-218 limits assumed): as the sequence (P12318 34-218 H167R limits assumed) above, with R134H counted along it
# Sequence of human FcγRIIb (human) (P31994 43-217 limits assumed): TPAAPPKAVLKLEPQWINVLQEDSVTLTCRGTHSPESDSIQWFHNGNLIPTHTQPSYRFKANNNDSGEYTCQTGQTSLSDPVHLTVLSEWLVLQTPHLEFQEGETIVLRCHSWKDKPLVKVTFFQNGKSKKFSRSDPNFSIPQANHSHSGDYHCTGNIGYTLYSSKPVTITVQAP
substance,measurement,setting,value
IgG1 antibody with Fc variant G236A_R292P_Y300L,"FcγR reporter signaling, fold-change vs wt [cont'd]",[1],6.15 fold
same,"FcγR reporter signaling, fold-change vs wt [cont'd]",[2],2.83 fold
same,"FcγR reporter signaling, fold-change vs wt [cont'd]",[3],1.87 fold
same,"FcγR reporter signaling, fold-change vs wt [cont'd]",human FcγRIIb (human) [4],1.01 fold
same,fold-change vs FY1 rIgG1m3,human C1q (human) [5],1.01 fold
same,fold-change vs FY1 rIgG1m3,human FcRn (human) [6],0.8 fold
same,fold-change vs FY1 rIgG1m3,[7],3.7 fold
same,fold-change vs FY1 rIgG1m3,[8],2.7 fold
same,fold-change vs FY1 rIgG1m3,human FcγRIIIb (human) [9],1.03 fold
same,fold-change to WT Fc,[10],14.2 fold
same,fold-change vs FY1 rIgG1m3,[10],14.2 fold
same,fold-change to WT Fc,[11],2.71 fold
same,fold-change vs FY1 rIgG1m3,[11],2.7 fold
same,fold-change to WT Fc,human FcγRIIb (human) [12],0.94 fold
same,fold-change vs FY1 rIgG1m3,human FcγRIIb (human) [12],0.9 fold
same,fold-change to WT Fc,human C1q (human) [13],1.01 fold
same,fold-change vs wt,human C1q (human) [13],1.01 fold
same,fold-change vs wt,human FcRn (human) [14],0.83 fold
same,fold-change to WT Fc,[15],3.71 fold
same,fold-change vs wt,[15],3.71 fold
same,fold-change to WT Fc,[16],2.69 fold
same,fold-change vs wt,[16],2.69 fold
same,fold-change vs wt,human FcγRIIIb (human) [17],1.03 fold
same,fold-change vs wt,[18],14.2 fold
same,fold-change vs wt,[19],2.71 fold
same,fold-change vs wt,human FcγRIIb (human) [20],0.94 fold
same,fold-change to WT Fc,human FcRn (human) [21],0.828 fold
same,fold-change in binding vs fucosylated wild-type human IgG1,[22],14 fold
same,fold-change in binding vs fucosylated wild-type human IgG1,[23],2.7 fold
